Results taken from patent US20230141177A1 (UNIVERSITY OF BRITISH COLUMBIA, published 2023).

Columns and labels:
[1] = biological target: T1, linear (CGHHQKG) (SEQ ID NO: 2) peptide-BSA (linear (non-cyclized) peptide; conjugated to BSA); test: SPR multi-cycle kinetics, purified IgG4 vs linear peptide-BSA
T1 construct: also called linear peptide-BSA; linear-BSA peptide

[2] = biological target: T2, cyclo (CGHHQKG) (SEQ ID NO: 2)-BSA (cyclized peptide, cyclo(CGHHQKG); conjugated to BSA); test: SPR multi-cycle kinetics, purified IgG4 vs cyclic peptide-BSA
T2 construct: also called cyclic peptide-BSA; cyclo-BSA peptide
T2 sequence (P02769 25-607 limits assumed): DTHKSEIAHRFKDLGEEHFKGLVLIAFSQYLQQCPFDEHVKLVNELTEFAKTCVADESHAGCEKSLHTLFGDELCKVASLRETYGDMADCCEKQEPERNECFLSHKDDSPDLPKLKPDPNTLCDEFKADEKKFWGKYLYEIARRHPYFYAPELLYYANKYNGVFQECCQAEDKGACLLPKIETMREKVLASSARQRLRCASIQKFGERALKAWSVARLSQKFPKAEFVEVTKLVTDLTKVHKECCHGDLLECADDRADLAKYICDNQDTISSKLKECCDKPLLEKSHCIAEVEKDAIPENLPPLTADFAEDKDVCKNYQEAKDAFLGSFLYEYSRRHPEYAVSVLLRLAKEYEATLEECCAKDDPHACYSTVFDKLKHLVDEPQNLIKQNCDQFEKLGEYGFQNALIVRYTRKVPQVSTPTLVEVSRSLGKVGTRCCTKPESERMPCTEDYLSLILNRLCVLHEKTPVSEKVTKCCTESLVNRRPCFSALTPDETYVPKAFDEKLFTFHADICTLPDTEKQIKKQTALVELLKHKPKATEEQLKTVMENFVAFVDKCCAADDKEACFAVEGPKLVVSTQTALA

[3] = biological target: T3, A-beta42 Oligomer (oligomer prep, made in F12 medium) (human); test: SPR (MASS-1), antibody immobilized, A-beta42 oligomer injected
T3 construct: also called synthetic AβO
T3 sequence (peptide, as listed by the source): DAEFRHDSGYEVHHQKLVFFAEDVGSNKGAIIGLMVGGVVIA
Method: (§1) All surface plasmon resonance (SPR) measurements were performed using a Molecular Affinity Screening System (MASS-1) (Sierra Sensors GmbH, Hamburg, Germany), an analytical biosensor that employs high intensity laser light and high speed optical scanning to monitor binding interactions in real time. In SPR direct binding assays, antibodies are covalently immobilized on individual flow cells of a High Amine Capacity (HAC) sensorchip (Sierra Sensors GmbH, Hamburg, Germany) and ligands flowed over the surface (BSA-conjugated peptides, A-beta42 Monomer and A-beta42 Oligomer). Each sample was diluted and injected in duplicate over the immobilized peptide and BSA reference surfaces, followed by injection of running buffer only for the dissociation phase. After every analytical cycle, the sensor chip surfaces were regenerated. Sensorgrams were double-referenced by subtracting out binding from the BSA reference surfaces and blank running buffer injections, and binding response report points collected in the dissociation phase.

[4] = biological target: T4, commercial A-beta oligomer (purchased from SynAging) (human); test: SPR (MASS-1), antibody immobilized, commercial oligomer injected
T4 construct: also called commercial oligomer
T4 sequence (peptide, as listed by the source): as above
Method: as §1

[5] = biological target: T2, cyclo (CGHHQKG) (SEQ ID NO: 2)-BSA; test: SPR single cycle kinetics; IgG4 in cell supernatant captured on Protein A chip; peptide-BSA injected at four rising concentrations, 0.025 to 0.675 nM [Cont.]
Method: (§2) A four-point, three-fold dilution range from 0.025 nM to 0.675 nM peptide-BSA without regeneration between each concentration was used.

[6] = biological target: T1, linear (CGHHQKG) (SEQ ID NO: 2) …; test: as above
Method: as §2

T1 sequence (P02769 25-607 limits assumed): as the sequence (P02769 25-607 limits assumed) above

B1: parental antibody, PMN310 humanized antibody variant VH2/Vk5 (human IgG4 S241P / kappa) (antibody, V domains shown)
VH: QVQLVQSGAEVKKPGASVKMSCKASGYSFTSYWINWVKQRPGQGLEWIGDVHPGRGVSTYNAKFKSRATLTLDTSISTAYMELSSLRSEDTAVYYCSRSHGNTYWFFDVWGQGTTVTVSS
VL: DVLMTQSPLSLPVTLGQPASISCRSSQSIVHSNGNTYLEWYQQRPGQSPRLLIYKVSNRFSGVPDRFSGSGSGTDFTLKISRVEAEDVGVYYCFQGSHVPFTFGQGTKLEIKR
notes: also called parental huPMN310; huPMN310
Binder B1 has a Kd [1] of 0.103 nM, a koff [1] of 0.000155 s⁻¹ and a kon [1] of 1.5e+06 M⁻¹ s⁻¹. The Kd [2] was 0.0274 nM, the koff [2] was 0.000155 s⁻¹ and the kon [2] was 5.65e+06 M⁻¹ s⁻¹. The “Binding to oligomer prep (BRU)” value [3] was 85.6 BRU and the “Binding to commercial oligomer (BRU)” value [4] was 3 BRU.

B2: Clone 5 (affinity matured VH with parental Vk, human IgG4 S241P / kappa) (antibody, V domains shown)
VH: QVQLVQSGAEVKKPGASVKMSCKASGYSFTSYWINWVKQRPGQGLEWIGDVHPGRGVSTYNAKFKSRATLTLDTSISTAYMELSSLRSEDTAVYYCARGALSPYWFFDVWGQGTTVTVSS
VL: DVLMTQSPLSLPVTLGQPASISCRSSQSIVHSNGNTYLEWYQQRPGQSPRLLIYKVSNRFSGVPDRFSGSGSGTDFTLKISRVEAEDVGVYYCFQGSHVPFTFGQGTKLEIKR
Work on B2 yielded a Kd [1] of 0.0924 nM, a koff [1] of 0.000138 s⁻¹ and a kon [1] of 1.49e+06 M⁻¹ s⁻¹. It also gave a Kd [2] of 0.0647 nM, a koff [2] of 0.000132 s⁻¹ and a kon [2] of 2.04e+06 M⁻¹ s⁻¹. The “Binding to oligomer prep (BRU)” value [3] was 223 BRU and the “Binding to commercial oligomer (BRU)” value [4] was 32.3 BRU.

B3: Clone 13 (antibody, human IgG4 S228P, kappa, V domains shown)
VH: QVQLVQSGAEVKKPGASVKMSCKASGYSFTSYWINWVKQRPGQGLEWIGDVHPGRGVSTYNAKFKSRATLTLDTSISTAYMELSSLRSEDTAVYYCARSVGDTYWFYDVWGQGTTVTVSS
VL: DVLMTQSPLSLPVTLGQPASISCRSSQSIVHSNGNTYLEWYQQRPGQSPRLLIYKVSNRFSGVPDRFSGSGSGTDFTLKISRVEAEDVGVYYCFQGSHVPFTFGQGTKLEIKR
B3: no binding [5]; no binding [6].

B4: Clone 14 (affinity matured VH with parental Vk, human IgG4 S241P / kappa) (antibody, V domains shown)
VH: QVQLVQSGAEVKKPGASVKMSCKASGYSFTSYWINWVKQRPGQGLEWIGDVHPGRGVSTYNAKFKSRATLTLDTSISTAYMELSSLRSEDTAVYYCAKSDASGYWFFDVWGQGTTVTVSS
VL: DVLMTQSPLSLPVTLGQPASISCRSSQSIVHSNGNTYLEWYQQRPGQSPRLLIYKVSNRFSGVPDRFSGSGSGTDFTLKISRVEAEDVGVYYCFQGSHVPFTFGQGTKLEIKR
With B4 the Kd [2] was 0.0289 nM, the koff [2] was 0.000152 s⁻¹ and the kon [2] was 5.26e+06 M⁻¹ s⁻¹. For the same binder, the “Binding to oligomer prep (BRU)” value [3] was 30.8 BRU and the “Binding to commercial oligomer (BRU)” value [4] was 22.3 BRU.

B5: Clone 4 (affinity matured VH with parental Vk, human IgG4 S241P / kappa) (antibody, V domains shown)
VH: QVQLVQSGAEVKKPGASVKMSCKASGYSFTSYWINWVKQRPGQGLEWIGDVHPGRGVSTYNAKFKSRATLTLDTSISTAYMELSSLRSEDTAVYYCARVSPTGYWFFDVWGQGTTVTVSS
VL: DVLMTQSPLSLPVTLGQPASISCRSSQSIVHSNGNTYLEWYQQRPGQSPRLLIYKVSNRFSGVPDRFSGSGSGTDFTLKISRVEAEDVGVYYCFQGSHVPFTFGQGTKLEIKR
In the case of B5, the Kd [2] is reported as 0.0235 nM, the koff [2] is reported as 6.9e-05 s⁻¹ and the kon [2] is reported as 2.94e+06 M⁻¹ s⁻¹. The “Binding to oligomer prep (BRU)” value [3] was 57.3 BRU and the “Binding to commercial oligomer (BRU)” value [4] was 22.6 BRU.
